From paper PMC2173330 (The Journal of Cell Biology, 2002) come the findings set out here.

The target of this assay is T1, XSMC1 (Xenopus (endogenous in egg extracts), UniProt O93308 1-1232).
T1 sequence: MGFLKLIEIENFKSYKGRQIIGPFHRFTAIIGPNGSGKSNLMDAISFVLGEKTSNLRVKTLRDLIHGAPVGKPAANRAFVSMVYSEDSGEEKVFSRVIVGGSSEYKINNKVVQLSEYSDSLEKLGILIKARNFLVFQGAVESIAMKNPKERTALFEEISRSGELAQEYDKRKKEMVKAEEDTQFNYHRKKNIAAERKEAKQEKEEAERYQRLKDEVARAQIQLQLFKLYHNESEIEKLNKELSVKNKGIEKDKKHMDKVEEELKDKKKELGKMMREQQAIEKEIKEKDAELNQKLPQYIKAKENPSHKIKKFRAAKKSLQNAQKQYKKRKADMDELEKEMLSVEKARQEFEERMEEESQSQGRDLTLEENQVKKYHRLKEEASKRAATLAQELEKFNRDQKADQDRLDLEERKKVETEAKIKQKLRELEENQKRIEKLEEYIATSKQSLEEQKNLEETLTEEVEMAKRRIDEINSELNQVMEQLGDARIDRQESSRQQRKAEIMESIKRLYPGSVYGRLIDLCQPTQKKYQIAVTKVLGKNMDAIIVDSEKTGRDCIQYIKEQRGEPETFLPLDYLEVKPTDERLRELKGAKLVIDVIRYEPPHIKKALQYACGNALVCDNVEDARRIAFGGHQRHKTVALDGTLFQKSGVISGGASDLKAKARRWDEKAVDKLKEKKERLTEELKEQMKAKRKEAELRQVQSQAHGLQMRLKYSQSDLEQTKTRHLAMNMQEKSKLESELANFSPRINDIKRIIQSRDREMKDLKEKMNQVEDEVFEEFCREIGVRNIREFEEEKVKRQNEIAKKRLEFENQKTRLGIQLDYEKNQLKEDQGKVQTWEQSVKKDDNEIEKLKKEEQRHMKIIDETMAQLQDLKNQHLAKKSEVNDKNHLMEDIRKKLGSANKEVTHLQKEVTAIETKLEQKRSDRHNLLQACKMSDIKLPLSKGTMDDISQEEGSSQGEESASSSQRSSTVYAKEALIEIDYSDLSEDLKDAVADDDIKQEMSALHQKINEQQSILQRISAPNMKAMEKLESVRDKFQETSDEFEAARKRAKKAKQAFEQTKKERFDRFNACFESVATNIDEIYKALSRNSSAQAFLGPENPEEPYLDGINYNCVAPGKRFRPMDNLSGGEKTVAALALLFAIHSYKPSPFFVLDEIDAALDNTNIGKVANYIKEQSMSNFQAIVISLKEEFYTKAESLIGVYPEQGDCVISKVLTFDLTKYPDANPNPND
Description: rotary-shadowing electron microscopy.

B1: XSMC3 (natural protein)
chain: MYIKQVIIQGFRSYRDQTIVDPFSSKHNVIVGRNGSGKSNFFYAIQFVLSDEFSHLRPEQRLALLHEGTGPRVISAFVEIIFDNSDNRLPIDKEEVSLRRVIGAKKDQYFLDKKMVTKNDVMNLLESAGFSRSNPYYIVKQGKINQMATAPDSQRLKLLREVAGTRVYDERKEESISLMKETEGKRDKINELLKYIEERLHTLEEEKEELAQYQKWDKMRRALEYTIYNQELNETRAKLDELSSKRETSGEKSRQLRDAQQDARDKMEEIERQVRELKSKISAMKEEKEQLSSERQEQIKQRTKLELKTKDLQDELAGNSEQRKRLLKERQKLLEKIEEKQKELAETEPKFSSVKQKEESGIARLAQATQERTDLYAKQGRGSQFTSKEERDKWIKKELKSLDQAINDKKRQIAAINKDLEETEVNKEKNLEQYTKLDQDLNEVKTRVEELDKKYYEVKNKKDELQSERNYLWREENAEQQSLAAKREDLEKKQQLLRAATGKAILNGIDSINKVLEHFRRKGINQHVINGYHGIVMNNFDCEPAFYTCVEVTAGNRLFYHIVESDEVSTKILMEFNKMNLPGEVTFLPLNKLDVRDTAYPETNDAIPMISKLRYNLRFDKAFKHVFGKTLICRSMEVSTQLARAFTMDCITLEGDQVSHRGALTGGYYDTRKSRLELQKDVRKVEDELHALEAKLNENLRRNIERINNEIDQLMNQMQQIETQQRKFKASRDSILSEMKMLKEKRQQSEKTFMPKQRSLQSLEASLHAMESTRESLKAELGTDLLSQLSLEDQKRVDALNDEIRQLQQENRQLLNERIKLEGTITRVETYLNENLRKRLDQVEQELNELRETEGGTVLTATTSELEAINKRVKDTLARSEGLDITIDKTEVESKDLVKSMDRWKNMEKDHMDAINHDTKELEKMTNRQGMLLKKKEECMKKIRELGSLPQEAFEKYQTLSLKQLFRKLEQCNTELKKYSHVNKKALDQFVNFSEQKEKLIKRQEELDRGHKSIMELMNVLELRKYEAIQLTFKQVSKNFSEVFQKLVPGGKATLVMKKGDVEGSQSQDEGEGSTQSSVPSVDQFTGVGIRVSFTGKQAEMREMQQLSGGQKSLVALALIFAIQKCDPAPFYLFDEIDQALDAQHRKAVSDMIMELASHAQFITTTFRPELLESADKFYGVKFRNKVSHIDVITAEQAKDFVEDDTTHG
In the case of B1, the binding result was “binds”.
